For assay [1], the target named is T1, human hisTRIM7- (human, UniProt Q9C029 342-511). Put plainly: ITC. A general note: ITC needs no label: the signal is the heat of the interaction.
Assay [2] deals with T1, human hisTRIM7-. Put plainly: ITC. The source holds these as a separate data set.

Read-outs that look alike come from different tables or passages of the source. Ends that are not written are not given here.

In the assay with human hisTRIM7- [1], Ac-Leu-Gln [N-terminal acetylated LQ] yielded a Kd of 144 µM.
In the assay with human hisTRIM7- [2], DNIKKKLDTYLQ [rbGYG1 322-333 peptide] registered a Kd of 21.1 µM.

As usually defined, the Kd is the free concentration of one partner at which half of the binding sites on the other are occupied at equilibrium, for simple one-to-one binding. A high value points to weaker binding.

(Values after article PMC9394474 (2022).)
